Results published in article PMC2734569, “Functional mapping of the fission yeast DNA polymerase δ B-subunit Cdc1 by site-directed and random pentapeptide insertion mutagenesis” (BMC Molecular Biology, 2009).
Positions count from the first letter of the chain named.

Tests used:
Assay in all cases: two-hybrid; LexA-Cdc1 bait (pBTM116 or pBTM116BN) with Gal4-Pol3 prey and co-expressed c-myc-tagged Cdc27 (pAA-Cdc27) in S. cerevisiae CTY10-5d; ONPG liquid culture beta-galactosidase assay, mean of triplicates, as percent of wild-type Cdc1
Details in all cases: partners not purified
[1] = molecular target: T1, Cdc1-J2 (Schizosaccharomyces pombe, UniProt P87324 1-462, Tyr-ArgGlyThrProTyr-Ser)
T1 construct: Cdc1, S. pombe, with a pentapeptide inserted after residue 25; also called J18; J20; source: yeast two-hybrid fusion, in S. cerevisiae CTY10-5d
T1 sequence (looked up): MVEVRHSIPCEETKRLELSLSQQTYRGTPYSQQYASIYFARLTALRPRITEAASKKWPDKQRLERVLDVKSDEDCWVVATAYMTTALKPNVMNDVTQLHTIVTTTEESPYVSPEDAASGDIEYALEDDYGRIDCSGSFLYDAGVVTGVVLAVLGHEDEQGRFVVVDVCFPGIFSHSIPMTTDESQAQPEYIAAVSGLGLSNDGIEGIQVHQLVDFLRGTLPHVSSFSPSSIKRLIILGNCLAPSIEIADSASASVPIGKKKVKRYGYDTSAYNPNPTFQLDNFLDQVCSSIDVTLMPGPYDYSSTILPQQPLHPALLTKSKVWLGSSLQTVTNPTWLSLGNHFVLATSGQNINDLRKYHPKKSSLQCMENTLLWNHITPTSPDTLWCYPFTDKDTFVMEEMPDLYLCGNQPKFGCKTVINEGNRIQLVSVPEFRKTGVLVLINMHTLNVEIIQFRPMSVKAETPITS

[2] = molecular target: T2, Cdc1-E9 (Schizosaccharomyces pombe, UniProt P87324 1-462, Tyr-GlyGlyTyrProTyr-Gly)
T2 construct: Cdc1, S. pombe, with a pentapeptide inserted after residue 124; source: yeast two-hybrid fusion, in S. cerevisiae CTY10-5d
T2 sequence (looked up): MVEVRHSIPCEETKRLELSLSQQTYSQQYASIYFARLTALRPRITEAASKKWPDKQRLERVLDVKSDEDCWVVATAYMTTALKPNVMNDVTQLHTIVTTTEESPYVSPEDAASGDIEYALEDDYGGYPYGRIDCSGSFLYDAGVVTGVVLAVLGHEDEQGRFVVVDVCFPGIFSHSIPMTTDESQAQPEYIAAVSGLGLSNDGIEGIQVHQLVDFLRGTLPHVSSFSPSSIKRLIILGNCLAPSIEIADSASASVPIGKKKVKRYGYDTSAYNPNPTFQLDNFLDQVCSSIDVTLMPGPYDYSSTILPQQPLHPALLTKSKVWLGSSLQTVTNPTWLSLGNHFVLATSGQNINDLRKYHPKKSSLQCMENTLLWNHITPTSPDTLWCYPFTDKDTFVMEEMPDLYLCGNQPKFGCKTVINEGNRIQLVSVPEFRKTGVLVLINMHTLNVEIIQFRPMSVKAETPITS

[3] = molecular target: T3, Cdc1-J6 (Schizosaccharomyces pombe, UniProt P87324 1-462, Tyr-GlyValProHisTyr-Gly)
T3 construct: Cdc1, S. pombe, with a pentapeptide inserted after residue 124; source: yeast two-hybrid fusion, in S. cerevisiae CTY10-5d
T3 sequence (looked up): T2 sequence (looked up) with G126V, Y127P, P128H

[4] = molecular target: T4, Cdc1-A8 (Schizosaccharomyces pombe, UniProt P87324 1-462, Pro374Ala)
T4 construct: Cdc1, S. pombe, point mutant; source: yeast two-hybrid fusion, in S. cerevisiae CTY10-5d
T4 sequence (looked up): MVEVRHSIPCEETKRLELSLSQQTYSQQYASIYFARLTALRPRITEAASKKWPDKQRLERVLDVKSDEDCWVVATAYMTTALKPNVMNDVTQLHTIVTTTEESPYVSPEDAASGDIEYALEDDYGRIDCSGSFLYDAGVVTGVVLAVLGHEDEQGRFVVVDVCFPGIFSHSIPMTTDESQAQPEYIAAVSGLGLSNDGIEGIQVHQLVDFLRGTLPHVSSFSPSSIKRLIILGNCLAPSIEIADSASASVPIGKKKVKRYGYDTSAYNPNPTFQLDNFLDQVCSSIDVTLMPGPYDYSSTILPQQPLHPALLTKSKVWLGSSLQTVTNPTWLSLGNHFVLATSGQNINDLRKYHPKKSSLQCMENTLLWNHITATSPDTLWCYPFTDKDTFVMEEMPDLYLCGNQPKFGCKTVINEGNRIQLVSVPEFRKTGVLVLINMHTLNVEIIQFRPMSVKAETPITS

[5] = molecular target: T5, Cdc1-E2 (Schizosaccharomyces pombe, UniProt P87324 1-26)
T5 construct: Cdc1, S. pombe, truncated after amino acid 26 by a 16 nt insertion; residues coded by the 16 nt insertion before the stop codon (printed as GlyValProLysTer); source: yeast two-hybrid fusion, in S. cerevisiae CTY10-5d
T5 chain: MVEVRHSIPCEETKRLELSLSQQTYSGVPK

two-hybrid beta-galactosidase activity, % of wild-type Cdc1 [1]: 46%
two-hybrid beta-galactosidase activity, % of wild-type Cdc1 [2]: 24%
two-hybrid beta-galactosidase activity, % of wild-type Cdc1 [3]: < 1%
two-hybrid beta-galactosidase activity, % of wild-type Cdc1 [4]: 17%
two-hybrid beta-galactosidase activity, % of wild-type Cdc1 [5]: < 1%
B1: Pol3 (fission yeast DNA polymerase delta catalytic subunit) (natural protein, Schizosaccharomyces pombe, UniProt P30316 1-1086, looked up)
chain: MTDRSSNEGVVLNKENYPFPRRNGSIHGEITDVKRRRLSERNGYGDKKGSSSKEKTSSFEDELAEYASQLDQDEIKSSKDQQWQRPALPAINPEKDDIYFQQIDSEEFTEGSVPSIRLFGVTDNGNSILVHVVGFLPYFYVKAPVGFRPEMLERFTQDLDATCNGGVIDHCIIEMKENLYGFQGNEKSPFIKIFTTNPRILSRARNVFERGEFNFEELFPVGVGVTTFESNTQYLLRFMIDCDVVGMNWIHLPASKYQFRYQNRVSNCQIEAWINYKDLISLPAEGQWSKMAPLRIMSFDIECAGRKGVFPDPSIDPVIQIASIVTQYGDSTPFVRNVFCVDTCSQIVGTQVYEFQNQAEMLSSWSKFVRDVDPDVLIGYNICNFDIPYLLDRAKSLRIHNFPLLGRIHNFFSVAKETTFSSKAYGTRESKTTSIPGRLQLDMLQVMQRDFKLRSYSLNAVCSQFLGEQKEDVHYSIITDLQNGTADSRRRLAIYCLKDAYLPQRLMDKLMCFVNYTEMARVTGVPFNFLLARGQQIKVISQLFRKALQHDLVVPNIRVNGTDEQYEGATVIEPIKGYYDTPIATLDFSSLYPSIMQAHNLCYTTLLDSNTAELLKLKQDVDYSVTPNGDYFVKPHVRKGLLPIILADLLNARKKAKADLKKETDPFKKAVLDGRQLALKVSANSVYGFTGATNGRLPCLAISSSVTSYGRQMIEKTKDVVEKRYRIENGYSHDAVVIYGDTDSVMVKFGVKTLPEAMKLGEEAANYVSDQFPNPIKLEFEKVYFPYLLISKKRYAGLFWTRTDTYDKMDSKGIETVRRDNCPLVSYVIDTALRKMLIDQDVEGAQLFTKKVISDLLQNKIDMSQLVITKALSKTDYAAKMAHVELAERMRKRDAGSAPAIGDRVAYVIIKGAQGDQFYMRSEDPIYVLENNIPIDAKYYLENQLSKPLLRIFEPILGEKASSLLHGDHTRTISMAAPSVGGIMKFAVKVETCLGCKAPIKKGKTALCENCLNRSAELYQRQVAQVNDLEVRFARLWTQCQRCQGSMHQDVICTSRDCPIFYMRIAEHKKLQQSVDLLKRFDEMSW
notes: DNA polymerase delta catalytic subunit Pol3, S. pombe; prey plasmid named pACT-Pol3 in the results and pGAD2F-Pol3 in the methods; also called Gal4-Pol3; pACT-Pol3; source: yeast two-hybrid fusion, in S. cerevisiae CTY10-5d
